From paper PMC5123050

Molecular target: 32P-labelled ORF145/RIP (protein kinase A recognition sequence and C-terminal His-tag) (Acidianus two-tailed virus (ATV))
Assay: native gel or EMSA; 32P-ORF145/RIP (1 nM) with 1–100 nM Sso RNAP in 10 mM MOPS pH 6.5, 10 mM MgCl2, 260 mM NaCl, 5 mM DTT, 10% glycerol, BSA, 2 mM ATP, 65 °C 5 min; 6% native PAGE; tight binding equation; complexes also resistant to 2 M NaCl

Sulfolobus solfataricus (Sso) RNA polymerase, 13 subunits (from UniProt Q980R2 1-880) (complex)
Kd: 12.6 nM
